Substitutions are numbered along the chain they refer to. Names may count otherwise.
T1: human IL-5Rα expressed on the K562/IL-5Rα cell line (human, UniProt Q01344 21-420)
T1 sequence (looked up): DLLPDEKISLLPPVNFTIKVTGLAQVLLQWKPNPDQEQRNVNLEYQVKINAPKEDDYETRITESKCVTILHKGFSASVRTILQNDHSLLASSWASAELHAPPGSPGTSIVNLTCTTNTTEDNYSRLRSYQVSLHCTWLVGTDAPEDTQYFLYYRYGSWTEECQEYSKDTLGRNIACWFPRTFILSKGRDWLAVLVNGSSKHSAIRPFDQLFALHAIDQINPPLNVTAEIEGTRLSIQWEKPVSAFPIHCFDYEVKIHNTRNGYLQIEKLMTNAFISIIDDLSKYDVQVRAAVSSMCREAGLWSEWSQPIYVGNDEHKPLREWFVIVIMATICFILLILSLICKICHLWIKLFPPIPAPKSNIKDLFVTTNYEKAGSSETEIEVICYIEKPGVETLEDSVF

T2: hIL-5Rα, purified recombinant protein (human, UniProt Q01344 21-342, limits assumed)
T2 construct: Soluble antigen of the Octet experiments
T2 sequence (looked up): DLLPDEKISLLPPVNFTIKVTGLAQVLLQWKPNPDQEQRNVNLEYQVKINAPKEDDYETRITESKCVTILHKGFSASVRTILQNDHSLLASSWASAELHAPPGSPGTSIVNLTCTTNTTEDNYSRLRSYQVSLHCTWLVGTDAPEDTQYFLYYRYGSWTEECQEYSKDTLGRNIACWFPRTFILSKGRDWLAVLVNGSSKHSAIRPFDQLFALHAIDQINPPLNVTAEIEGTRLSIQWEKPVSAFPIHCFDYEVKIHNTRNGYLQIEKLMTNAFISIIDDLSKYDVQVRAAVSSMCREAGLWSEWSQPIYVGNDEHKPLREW

B1: IL-5Rα×CD3ε-Diabody-Fc (bispecific antibody)
chain 1: DIQMTQSPSTLSASVGDRVTITCKASQNVGTAVAWYQQKPGKAPKLLIYWASTRHTGVPDRFSGSGSGTDFTLTISSLQPDDFATYYCQQFGRYPYTFGSGTKVEVKGGGSGGGGEVQLVESGGGLVQPKGSLKLSCAASGFTFNTYAMNWVRQAPGKGLEWVARIRSKYNNYATYYADSVKDRFTISRDDSQSILYLQMNNLKTEDTAMYYCVRHGNFGNSYVSWFAYWGQGTLVTVSSGCPPCPAPEFEGGPSVFLFPPKPKDTLMISRTPEVTCVVVAVSHEDPEVKFNWYVDGVEVHNAKTKPREEQYNSTYRVVSVLTVLHQDWLNGKEYKCKVSNKALPAPIEKTISKAKGQPREPQVYTLPPSRDELTENQVSLTCLVKGFYPSDIAVEWESNGQPENNYKTTPPVLDSDGSFFLYSWLTVDKSRWQQGNVFSCSVMHEALHNHYTQKSLSLSPGK
chain 2: QAVVTQESALTTSPGETVTLTCRSSTGAVTTSNYANWVQEKPDHLFTGLIGGTNKRAPGVPARFSGSLIGDKAALTITGAQTEDEAIYFCALWYSNLWVFGGGTKLTVLGGGSGGGGQVQLVQSGAEVKKPGSSVKVSCKASGYTFTSYWINWVRQAPGQGLEWIGHIYPNKNENYYNHKFKDKATLTVDKSTNTAYMELSSLRSEDTAVYYCTREFYGRQYYQAMDYWGQGTTLTVSSGCPPCPAPEFEGGPSVFLFPPKPKDTLMISRTPEVTCVVVAVSHEDPEVKFNWYVDGVEVHNAKTKPREEQYNSTYRVVSVLTVLHQDWLNGKEYKCKVSNKALPAPIEKTISKAKGQPREPRVYTLPPSRDELTKNQVSLTCLVKGFYPSDIAVEWESNGQPENNYKTTPPVLVSDGSFTLYSKLTVDKSRWQQGNVFSCSVMHEALHNHYTQKSLSLSPGK
notes: Built from 5R65.7 (anti-IL-5Rα) and humanized SP34 (anti-CD3ε); Heterodimeric IgG1 Fc with EW-RVT and L234F/L235E/D265A (FEA) mutations
B2: IL-5Rα×CD3ε-scFv(L)/scFv-Fc (bispecific antibody, human IgG1)
chain 1: QAVVTQESALTTSPGETVTLTCRSSTGAVTTSNYANWVQEKPDHLFTGLIGGTNKRAPGVPARFSGSLIGDKAALTITGAQTEDEAIYFCALWYSNLWVFGGGTKLTVLGGGGSGGGGSGGGGSEVQLVESGGGLVQPKGSLKLSCAASGFTFNTYAMNWVRQAPGKGLEWVARIRSKYNNYATYYADSVKDRFTISRDDSQSILYLQMNNLKTEDTAMYYCVRHGNFGNSYVSWFAYWGQGTLVTVSSEPKSCDKTHTCPPCPAPEFEGGPSVFLFPPKPKDTLMISRTPEVTCVVVAVSHEDPEVKFNWYVDGVEVHNAKTKPREEQYNSTYRVVSVLTVLHQDWLNGKEYKCKVSNKALPAPIEKTISKAKGQPREPQVYTLPPSRDELTENQVSLTCLVKGFYPSDIAVEWESNGQPENNYKTTPPVLDSDGSFFLYSWLTVDKSRWQQGNVFSCSVMHEALHNHYTQKSLSLSPGK
chain 2: DIQMTQSPSTLSASVGDRVTITCKASQNVGTAVAWYQQKPGKAPKLLIYWASTRHTGVPDRFSGSGSGTDFTLTISSLQPDDFATYYCQQFGRYPYTFGSGTKVEVKGGGGSGGGGSGGGGSQVQLVQSGAEVKKPGSSVKVSCKASGYTFTSYWINWVRQAPGQGLEWIGHIYPNKNENYYNHKFKDKATLTVDKSTNTAYMELSSLRSEDTAVYYCTREFYGRQYYQAMDYWGQGTTLTVSSEPKSCDKTHTCPPCPAPEFEGGPSVFLFPPKPKDTLMISRTPEVTCVVVAVSHEDPEVKFNWYVDGVEVHNAKTKPREEQYNSTYRVVSVLTVLHQDWLNGKEYKCKVSNKALPAPIEKTISKAKGQPREPRVYTLPPSRDELTKNQVSLTCLVKGFYPSDIAVEWESNGQPENNYKTTPPVLVSDGSFTLYSKLTVDKSRWQQGNVFSCSVMHEALHNHYTQKSLSLSPGK
notes: Built from 5R65.7 and humanized SP34 scFvs with (G4S)3 linkers and an IgG1 hinge; Heterodimeric IgG1 Fc with EW-RVT and FEA mutations; also called IL-5Rα×CD3α-scFv(L)/scFv-Fc
B3: IL-5Rα(5R65)×CD3ε-scFv(L)/scFv-Fc (bispecific antibody)
chain 1: B2 chain 2 with E221D, F222Y, Q226S, Q229Y
chain 2: B2 chain 1
notes: Control in the scFv(L)/scFv-Fc format, built with 5R65, the parent antibody of 5R65.7; also called IL-5Rα(5R65)×CD3α-scFv(L)/scFv-Fc
B4: IL-5Rα×CD3ε-BiTE(L)/scFv-Fc (bispecific antibody, human IgG1)
chain 1: DIQMTQSPSTLSASVGDRVTITCKASQNVGTAVAWYQQKPGKAPKLLIYWASTRHTGVPDRFSGSGSGTDFTLTISSLQPDDFATYYCQQFGRYPYTFGSGTKVEVKGGGGSGGGGSGGGGSQVQLVQSGAEVKKPGSSVKVSCKASGYTFTSYWINWVRQAPGQGLEWIGHIYPNKNENYYNHKFKDKATLTVDKSTNTAYMELSSLRSEDTAVYYCTREFYGRQYYQAMDYWGQGTTLTVSSGGGGSQAVVTQESALTTSPGETVTLTCRSSTGAVTTSNYANWVQEKPDHLFTGLIGGTNKRAPGVPARFSGSLIGDKAALTITGAQTEDEAIYFCALWYSNLWVFGGGTKLTVLGGGGSGGGGSGGGGSEVQLVESGGGLVQPKGSLKLSCAASGFTFNTYAMNWVRQAPGKGLEWVARIRSKYNNYATYYADSVKDRFTISRDDSQSILYLQMNNLKTEDTAMYYCVRHGNFGNSYVSWFAYWGQGTLVTVSSEPKSCDKTHTCPPCPAPEFEGGPSVFLFPPKPKDTLMISRTPEVTCVVVAVSHEDPEVKFNWYVDGVEVHNAKTKPREEQYNSTYRVVSVLTVLHQDWLNGKEYKCKVSNKALPAPIEKTISKAKGQPREPQVYTLPPSRDELTENQVSLTCLVKGFYPSDIAVEWESNGQPENNYKTTPPVLDSDGSFFLYSWLTVDKSRWQQGNVFSCSVMHEALHNHYTQKSLSLSPGK
chain 2: QVQLVQSGAEVKKPGSSVKVSCKASGYTFTSYWINWVRQAPGQGLEWIGHIYPNKNENYYNHKFKDKATLTVDKSTNTAYMELSSLRSEDTAVYYCTREFYGRQYYQAMDYWGQGTTLTVSSGGGGSGGGGSGGGGSDIQMTQSPSTLSASVGDRVTITCKASQNVGTAVAWYQQKPGKAPKLLIYWASTRHTGVPDRFSGSGSGTDFTLTISSLQPDDFATYYCQQFGRYPYTFGSGTKVEVKEPKSCDKTHTCPPCPAPEFEGGPSVFLFPPKPKDTLMISRTPEVTCVVVAVSHEDPEVKFNWYVDGVEVHNAKTKPREEQYNSTYRVVSVLTVLHQDWLNGKEYKCKVSNKALPAPIEKTISKAKGQPREPRVYTLPPSRDELTKNQVSLTCLVKGFYPSDIAVEWESNGQPENNYKTTPPVLVSDGSFTLYSKLTVDKSRWQQGNVFSCSVMHEALHNHYTQKSLSLSPGK
notes: Heterodimeric IgG1 Fc with EW-RVT and FEA mutations
B5: IL-5Rα×CD3ε-IgG analog (bispecific antibody)
heavy 1: QVQLVQSGAEVKKPGSSVKVSCKASGYTFTSYWINWVRQAPGQGLEWIGHIYPNKNENYYNHKFKDKATLTVDKSTNTAYMELSSLRSEDTAVYYCTREFYGRQYYQAMDYWGQGTTLTVSSASTKGPSVFPLAPSSKSTSGGTAALGCLVKDYFPEPVTVSWNSGALTSGVHTFPAVLQSSGLYSLSSVVTVPSSSLGTQTYICNVNHKPSNTKVDKKVEPKSCDKTHTCPPCPAPEFEGGPSVFLFPPKPKDTLMISRTPEVTCVVVAVSHEDPEVKFNWYVDGVEVHNAKTKPREEQYNSTYRVVSVLTVLHQDWLNGKEYKCKVSNKALPAPIEKTISKAKGQPREPRVYTLPPSRDELTKNQVSLTCLVKGFYPSDIAVEWESNGQPENNYKTTPPVLVSDGSFTLYSKLTVDKSRWQQGNVFSCSVMHEALHNHYTQKSLSLSPGK
light: DIQMTQSPSTLSASVGDRVTITCKASQNVGTAVAWYQQKPGKAPKLLIYWASTRHTGVPDRFSGSGSGTDFTLTISSLQPDDFATYYCQQFGRYPYTFGSGTKVEVKRTVAAPSVFIFPPSDEQLKSGTASVKCLLNNFYPREAKVQWKVDNALQSGNSQESVTEQDSKDSTYSLSSTLTLSKADYEKHKVYACEVTHQGLSSPVTKSFNRGEC
heavy 2: not shown
chain: QAVVTQESALTTSPGETVTLTCRSSTGAVTTSNYANWVQEKPDHLFTGLIGGTNKRAPGVPARFSGSLIGDKAALTITGAQTEDEAIYFCALWYSNLWVFGGGTKLTVLRTVAAPSVFIFPPSDEQLKSGTASVECLLNNFYPREAKVQWKVDNALQSGNSQESVTEQDSKDSTYSLSSTLTLSKADYEKHKVYACEVTHQGLSSPVTKSFNRGEC
notes: Four-chain molecule: SP34 heavy and light chains and 5R65.7 heavy and light chains, with complementary CH1/CL mutations, EW-RVT and FEA

Tests used:
[1] = biological target: T1, human IL-5Rα expressed on the …; experiment: cell-based or functional assay
[2] = biological target: human CD3ε on activated PBMC (human, UniProt P07766 23-207); experiment: cell-based or functional assay
human CD3ε on activated PBMC, sequence (P07766 23-207): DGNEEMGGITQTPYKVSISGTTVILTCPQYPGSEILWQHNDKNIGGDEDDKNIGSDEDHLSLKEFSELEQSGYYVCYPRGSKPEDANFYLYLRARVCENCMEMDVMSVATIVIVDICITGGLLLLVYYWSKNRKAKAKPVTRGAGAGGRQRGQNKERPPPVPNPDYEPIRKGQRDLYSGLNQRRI

[3] = biological target: T3, CD3ε, commercially available (sinobiological, 10977-H08H) (UniProt P07766 23-126); experiment: BLI (Octet QKe), antibody captured on AHC sensor, antigen 125-4,000 nM, 1:1 model
T3 construct: Bought protein
T3 sequence (P07766 23-126 limits assumed): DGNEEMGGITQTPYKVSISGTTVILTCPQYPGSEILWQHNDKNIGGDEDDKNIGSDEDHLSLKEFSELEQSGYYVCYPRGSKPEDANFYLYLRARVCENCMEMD

[4] = biological target: T2, hIL-5Rα, purified recombinant protein; experiment: as above
[5] = biological target: T2, hIL-5Rα, purified recombinant protein; experiment: BLI (Octet QKe), ratio of the KD values of Table 2
[6] = biological target: T1, human IL-5Rα expressed on the …; experiment: flow cytometry on K562/IL-5Rα cells, 50 nM antibody

Row | Binder | 24hr EC50 of T cell-mediated cytotoxicity (LDH release) against K562/IL-5Rα, activated PBMC, E:T 5:1 [1] [nM] | IFN-γ EC50 (pM), ELISA of supernatant after 24 h co-culture of activated PBMC and K562/IL-5Rα [2] [pM] | Kd [3] [nM] | koff [3] [s⁻¹] | kon [3] [M⁻¹ s⁻¹] | Kd [4] [nM] | koff [4] [s⁻¹] | kon [4] [M⁻¹ s⁻¹] | fold higher binding affinity for IL-5Rα than the Diabody-Fc format [5] [fold] | binding result [6]
1 | B1 | 0.00497 | 2340 | 8.41 | 0.00141 | 167000 | 123 | 0.000306 | 2500 | – | –
2 | B2 | 0.000857 | 770 | 3.61 | 0.000634 | 176000 | 59.8 | 0.000171 | 2850 | ~2.1 | –
3 | B3 | – | – | – | – | – | – | – | – | – | binds
4 | B4 | 0.0147 | 31000 | 4.62 | 0.000827 | 179000 | 22.9 | 0.000708 | 30900 | – | –
5 | B5 | 0.0231 | 2210 | 1.71 | 0.000474 | 278000 | 30.5 | 0.00011 | 3610 | – | –
